Reference: article PMC4299175

Molecular target: GST-tagged recombinant phosphorylated human ERK2 (human) (UniProt P28482)
Chain of UniProt P28482 (P28482 whole entry): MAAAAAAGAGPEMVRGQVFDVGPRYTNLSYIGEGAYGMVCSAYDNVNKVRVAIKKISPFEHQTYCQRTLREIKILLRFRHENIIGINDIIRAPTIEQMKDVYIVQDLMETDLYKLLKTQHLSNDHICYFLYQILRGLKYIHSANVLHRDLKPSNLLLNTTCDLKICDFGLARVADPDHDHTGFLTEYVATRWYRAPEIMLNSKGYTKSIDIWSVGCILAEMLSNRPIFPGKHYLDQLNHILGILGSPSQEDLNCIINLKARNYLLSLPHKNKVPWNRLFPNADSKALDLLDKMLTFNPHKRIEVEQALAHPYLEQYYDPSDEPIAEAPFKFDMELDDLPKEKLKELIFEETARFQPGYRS

B1: GST-S147P, glutathione-S-transferase-tagged full-length human DUSP5 serine 147 proline mutant (enzyme)
chain: MKVTSLDGRQLRKMLRKEAAARCVVLDCRPYLAFAASNVRGSLNVNLNSVVLRRARGGAVSARYVLPDEAARARLLQEGGGGVAAVVVLDQGSRHWQKLREESAARVVLTSLLACLPAGPRVYFLKGGYETFYSEYPECCVDVKPIPQEKIESERALISQCGKPVVNVSYRPAYDQGGPVEILPFLYLGSAYHASKCEFLANLHITALLNVSRRTSEACATHLHYKWIPVEDSHTADISSHFQEAIDFIDCVREKGGKVLVHCEAGISRSPTICMAYLMKTKQFRLKEAFDYIKQRRSMVSPNFGFMGQLLQYESEILPSTPNPQPPSCQGEAAGSSLIGHLQTLSPDMQGAYCTFPASVLAPVPTHSTVSELSRSPVATATSC
- dephosphorylation of pERK2 by western blot, dose curve 0.1-10 nM enzyme, 15 min; concentration at which the pERK band is completely absent (0.5 nM for GST-DUSP5): 5 nM
